Measured values reported in patent US20210388087A1 (Chugai, published 2021).

Target: T1, Human CD137 ECD (human)
T1 construct: entry includes C-terminal His-tag and biotin acceptor peptide; also called human CD137 extracellular domain; 4-1BB
Assay: Biacore SPR, vs parent H183/L072

T1 sequence (chain, as listed by the source limits assumed): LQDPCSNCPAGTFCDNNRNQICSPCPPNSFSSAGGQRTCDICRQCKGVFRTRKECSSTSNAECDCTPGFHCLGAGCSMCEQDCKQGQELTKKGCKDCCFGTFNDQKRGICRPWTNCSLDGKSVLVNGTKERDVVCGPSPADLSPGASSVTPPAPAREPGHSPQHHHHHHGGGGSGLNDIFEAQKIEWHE

Row | Binder | fold change of affinity
1 | H183/L072 VL L27bV (antibody, name in Kabat numbering, V domains shown, Dual-Ig) VH: QVQLVESGGGLVQPGRSLRLSCAASGFTFSNAWMHWVRQAPGKGLEWVAQIKDKGNAYAAYYAPSVKGRFTISRDDSKNSIYLQMNSLKTEDTAVYYCHYVHYASASTVLPAFGVDAWGQGTTVTVSS VL: DIVMTQSPLSLPVTPGEPASISCQASQEVVHMNRNTYLHWYQQKPGQAPRLLIYKVSNRFPGVPDRFSGSGSGTDFTLKISRVEAEDVGVYYCAQGTSVPFTFGQGTKLEIK | 1.1 fold
2 | H183/L072 VL L33V (antibody, name in Kabat numbering, V domains shown, Dual-Ig) VH: QVQLVESGGGLVQPGRSLRLSCAASGFTFSNAWMHWVRQAPGKGLEWVAQIKDKGNAYAAYYAPSVKGRFTISRDDSKNSIYLQMNSLKTEDTAVYYCHYVHYASASTVLPAFGVDAWGQGTTVTVSS VL: DIVMTQSPLSLPVTPGEPASISCQASQELVHMNRNTYVHWYQQKPGQAPRLLIYKVSNRFPGVPDRFSGSGSGTDFTLKISRVEAEDVGVYYCAQGTSVPFTFGQGTKLEIK | 0.6 fold
3 | H183/L072 VL L33G (antibody, name in Kabat numbering, V domains shown, Dual-Ig) VH: QVQLVESGGGLVQPGRSLRLSCAASGFTFSNAWMHWVRQAPGKGLEWVAQIKDKGNAYAAYYAPSVKGRFTISRDDSKNSIYLQMNSLKTEDTAVYYCHYVHYASASTVLPAFGVDAWGQGTTVTVSS VL: DIVMTQSPLSLPVTPGEPASISCQASQELVHMNRNTYGHWYQQKPGQAPRLLIYKVSNRFPGVPDRFSGSGSGTDFTLKISRVEAEDVGVYYCAQGTSVPFTFGQGTKLEIK | 0.1 fold
4 | H183/L072 VL L33I (antibody, name in Kabat numbering, V domains shown, Dual-Ig) VH: QVQLVESGGGLVQPGRSLRLSCAASGFTFSNAWMHWVRQAPGKGLEWVAQIKDKGNAYAAYYAPSVKGRFTISRDDSKNSIYLQMNSLKTEDTAVYYCHYVHYASASTVLPAFGVDAWGQGTTVTVSS VL: DIVMTQSPLSLPVTPGEPASISCQASQELVHMNRNTYIHWYQQKPGQAPRLLIYKVSNRFPGVPDRFSGSGSGTDFTLKISRVEAEDVGVYYCAQGTSVPFTFGQGTKLEIK | 0.1 fold
5 | H183/L072 VL L33E (antibody, name in Kabat numbering, V domains shown, Dual-Ig) VH: QVQLVESGGGLVQPGRSLRLSCAASGFTFSNAWMHWVRQAPGKGLEWVAQIKDKGNAYAAYYAPSVKGRFTISRDDSKNSIYLQMNSLKTEDTAVYYCHYVHYASASTVLPAFGVDAWGQGTTVTVSS VL: DIVMTQSPLSLPVTPGEPASISCQASQELVHMNRNTYEHWYQQKPGQAPRLLIYKVSNRFPGVPDRFSGSGSGTDFTLKISRVEAEDVGVYYCAQGTSVPFTFGQGTKLEIK | 0.1 fold
6 | H183/L072 VL L33H (antibody, name in Kabat numbering, V domains shown, Dual-Ig) VH: QVQLVESGGGLVQPGRSLRLSCAASGFTFSNAWMHWVRQAPGKGLEWVAQIKDKGNAYAAYYAPSVKGRFTISRDDSKNSIYLQMNSLKTEDTAVYYCHYVHYASASTVLPAFGVDAWGQGTTVTVSS VL: DIVMTQSPLSLPVTPGEPASISCQASQELVHMNRNTYHHWYQQKPGQAPRLLIYKVSNRFPGVPDRFSGSGSGTDFTLKISRVEAEDVGVYYCAQGTSVPFTFGQGTKLEIK | 0.9 fold
7 | H183/L072 VL L33P (antibody, name in Kabat numbering, V domains shown, Dual-Ig) VH: QVQLVESGGGLVQPGRSLRLSCAASGFTFSNAWMHWVRQAPGKGLEWVAQIKDKGNAYAAYYAPSVKGRFTISRDDSKNSIYLQMNSLKTEDTAVYYCHYVHYASASTVLPAFGVDAWGQGTTVTVSS VL: DIVMTQSPLSLPVTPGEPASISCQASQELVHMNRNTYPHWYQQKPGQAPRLLIYKVSNRFPGVPDRFSGSGSGTDFTLKISRVEAEDVGVYYCAQGTSVPFTFGQGTKLEIK | 0.2 fold
8 | H183/L072 VL L33Y (antibody, name in Kabat numbering, V domains shown, Dual-Ig) VH: QVQLVESGGGLVQPGRSLRLSCAASGFTFSNAWMHWVRQAPGKGLEWVAQIKDKGNAYAAYYAPSVKGRFTISRDDSKNSIYLQMNSLKTEDTAVYYCHYVHYASASTVLPAFGVDAWGQGTTVTVSS VL: DIVMTQSPLSLPVTPGEPASISCQASQELVHMNRNTYYHWYQQKPGQAPRLLIYKVSNRFPGVPDRFSGSGSGTDFTLKISRVEAEDVGVYYCAQGTSVPFTFGQGTKLEIK | 0.1 fold
9 | H183/L072 VL M27eA (antibody, name in Kabat numbering, V domains shown, Dual-Ig) VH: QVQLVESGGGLVQPGRSLRLSCAASGFTFSNAWMHWVRQAPGKGLEWVAQIKDKGNAYAAYYAPSVKGRFTISRDDSKNSIYLQMNSLKTEDTAVYYCHYVHYASASTVLPAFGVDAWGQGTTVTVSS VL: DIVMTQSPLSLPVTPGEPASISCQASQELVHANRNTYLHWYQQKPGQAPRLLIYKVSNRFPGVPDRFSGSGSGTDFTLKISRVEAEDVGVYYCAQGTSVPFTFGQGTKLEIK | 1 fold
10 | H183/L072 VL L33F (antibody, name in Kabat numbering, V domains shown, Dual-Ig) VH: QVQLVESGGGLVQPGRSLRLSCAASGFTFSNAWMHWVRQAPGKGLEWVAQIKDKGNAYAAYYAPSVKGRFTISRDDSKNSIYLQMNSLKTEDTAVYYCHYVHYASASTVLPAFGVDAWGQGTTVTVSS VL: DIVMTQSPLSLPVTPGEPASISCQASQELVHMNRNTYFHWYQQKPGQAPRLLIYKVSNRFPGVPDRFSGSGSGTDFTLKISRVEAEDVGVYYCAQGTSVPFTFGQGTKLEIK | 0.3 fold
11 | H183/L072 VL L33N (antibody, name in Kabat numbering, V domains shown, Dual-Ig) VH: QVQLVESGGGLVQPGRSLRLSCAASGFTFSNAWMHWVRQAPGKGLEWVAQIKDKGNAYAAYYAPSVKGRFTISRDDSKNSIYLQMNSLKTEDTAVYYCHYVHYASASTVLPAFGVDAWGQGTTVTVSS VL: DIVMTQSPLSLPVTPGEPASISCQASQELVHMNRNTYNHWYQQKPGQAPRLLIYKVSNRFPGVPDRFSGSGSGTDFTLKISRVEAEDVGVYYCAQGTSVPFTFGQGTKLEIK | 0.1 fold
12 | H183/L072 VL L33A (antibody, name in Kabat numbering, V domains shown, Dual-Ig) VH: QVQLVESGGGLVQPGRSLRLSCAASGFTFSNAWMHWVRQAPGKGLEWVAQIKDKGNAYAAYYAPSVKGRFTISRDDSKNSIYLQMNSLKTEDTAVYYCHYVHYASASTVLPAFGVDAWGQGTTVTVSS VL: DIVMTQSPLSLPVTPGEPASISCQASQELVHMNRNTYAHWYQQKPGQAPRLLIYKVSNRFPGVPDRFSGSGSGTDFTLKISRVEAEDVGVYYCAQGTSVPFTFGQGTKLEIK | 0.9 fold
13 | H183/L072 VL M27eF (antibody, name in Kabat numbering, V domains shown, Dual-Ig) VH: QVQLVESGGGLVQPGRSLRLSCAASGFTFSNAWMHWVRQAPGKGLEWVAQIKDKGNAYAAYYAPSVKGRFTISRDDSKNSIYLQMNSLKTEDTAVYYCHYVHYASASTVLPAFGVDAWGQGTTVTVSS VL: DIVMTQSPLSLPVTPGEPASISCQASQELVHFNRNTYLHWYQQKPGQAPRLLIYKVSNRFPGVPDRFSGSGSGTDFTLKISRVEAEDVGVYYCAQGTSVPFTFGQGTKLEIK | 0.7 fold
14 | H183/L072 VL M27eG (antibody, name in Kabat numbering, V domains shown, Dual-Ig) VH: QVQLVESGGGLVQPGRSLRLSCAASGFTFSNAWMHWVRQAPGKGLEWVAQIKDKGNAYAAYYAPSVKGRFTISRDDSKNSIYLQMNSLKTEDTAVYYCHYVHYASASTVLPAFGVDAWGQGTTVTVSS VL: DIVMTQSPLSLPVTPGEPASISCQASQELVHGNRNTYLHWYQQKPGQAPRLLIYKVSNRFPGVPDRFSGSGSGTDFTLKISRVEAEDVGVYYCAQGTSVPFTFGQGTKLEIK | 0.7 fold

Continued, values first:

Row | fold change of affinity | Binder
15 | 0.1 fold | H183/L072 VL L33W (antibody, name in Kabat numbering, V domains shown, Dual-Ig) VH: QVQLVESGGGLVQPGRSLRLSCAASGFTFSNAWMHWVRQAPGKGLEWVAQIKDKGNAYAAYYAPSVKGRFTISRDDSKNSIYLQMNSLKTEDTAVYYCHYVHYASASTVLPAFGVDAWGQGTTVTVSS VL: DIVMTQSPLSLPVTPGEPASISCQASQELVHMNRNTYWHWYQQKPGQAPRLLIYKVSNRFPGVPDRFSGSGSGTDFTLKISRVEAEDVGVYYCAQGTSVPFTFGQGTKLEIK
16 | 0.2 fold | H183/L072 VL L33T (antibody, name in Kabat numbering, V domains shown, Dual-Ig) VH: QVQLVESGGGLVQPGRSLRLSCAASGFTFSNAWMHWVRQAPGKGLEWVAQIKDKGNAYAAYYAPSVKGRFTISRDDSKNSIYLQMNSLKTEDTAVYYCHYVHYASASTVLPAFGVDAWGQGTTVTVSS VL: DIVMTQSPLSLPVTPGEPASISCQASQELVHMNRNTYTHWYQQKPGQAPRLLIYKVSNRFPGVPDRFSGSGSGTDFTLKISRVEAEDVGVYYCAQGTSVPFTFGQGTKLEIK
17 | 0.9 fold | H183/L072 VL M27eE (antibody, name in Kabat numbering, V domains shown, Dual-Ig) VH: QVQLVESGGGLVQPGRSLRLSCAASGFTFSNAWMHWVRQAPGKGLEWVAQIKDKGNAYAAYYAPSVKGRFTISRDDSKNSIYLQMNSLKTEDTAVYYCHYVHYASASTVLPAFGVDAWGQGTTVTVSS VL: DIVMTQSPLSLPVTPGEPASISCQASQELVHENRNTYLHWYQQKPGQAPRLLIYKVSNRFPGVPDRFSGSGSGTDFTLKISRVEAEDVGVYYCAQGTSVPFTFGQGTKLEIK
18 | 0.7 fold | H183/L072 VL M27eD (antibody, name in Kabat numbering, V domains shown, Dual-Ig) VH: QVQLVESGGGLVQPGRSLRLSCAASGFTFSNAWMHWVRQAPGKGLEWVAQIKDKGNAYAAYYAPSVKGRFTISRDDSKNSIYLQMNSLKTEDTAVYYCHYVHYASASTVLPAFGVDAWGQGTTVTVSS VL: DIVMTQSPLSLPVTPGEPASISCQASQELVHDNRNTYLHWYQQKPGQAPRLLIYKVSNRFPGVPDRFSGSGSGTDFTLKISRVEAEDVGVYYCAQGTSVPFTFGQGTKLEIK
19 | 1.4 fold | H183/L072 VL L33Q (antibody, name in Kabat numbering, V domains shown, Dual-Ig) VH: QVQLVESGGGLVQPGRSLRLSCAASGFTFSNAWMHWVRQAPGKGLEWVAQIKDKGNAYAAYYAPSVKGRFTISRDDSKNSIYLQMNSLKTEDTAVYYCHYVHYASASTVLPAFGVDAWGQGTTVTVSS VL: DIVMTQSPLSLPVTPGEPASISCQASQELVHMNRNTYQHWYQQKPGQAPRLLIYKVSNRFPGVPDRFSGSGSGTDFTLKISRVEAEDVGVYYCAQGTSVPFTFGQGTKLEIK
20 | 0.9 fold | H183/L072 VL L33M (antibody, name in Kabat numbering, V domains shown, Dual-Ig) VH: QVQLVESGGGLVQPGRSLRLSCAASGFTFSNAWMHWVRQAPGKGLEWVAQIKDKGNAYAAYYAPSVKGRFTISRDDSKNSIYLQMNSLKTEDTAVYYCHYVHYASASTVLPAFGVDAWGQGTTVTVSS VL: DIVMTQSPLSLPVTPGEPASISCQASQELVHMNRNTYMHWYQQKPGQAPRLLIYKVSNRFPGVPDRFSGSGSGTDFTLKISRVEAEDVGVYYCAQGTSVPFTFGQGTKLEIK
21 | 0.3 fold | H183/L072 VL L27bW (antibody, name in Kabat numbering, V domains shown, Dual-Ig) VH: QVQLVESGGGLVQPGRSLRLSCAASGFTFSNAWMHWVRQAPGKGLEWVAQIKDKGNAYAAYYAPSVKGRFTISRDDSKNSIYLQMNSLKTEDTAVYYCHYVHYASASTVLPAFGVDAWGQGTTVTVSS VL: DIVMTQSPLSLPVTPGEPASISCQASQEWVHMNRNTYLHWYQQKPGQAPRLLIYKVSNRFPGVPDRFSGSGSGTDFTLKISRVEAEDVGVYYCAQGTSVPFTFGQGTKLEIK
